Experimental data from patent US10413607B2, “Antibody specifically binding to ErbB3 and use thereof” (ISU ABXIS CO., LTD., priority 2015, dated 2019).

Experiments:
[1] = system: ZR-75-30 cells; assay: Paclitaxel resistance, caspase 3/7 activity in ZR-75-30 breast cancer cells with HRG; assay type: cell-based; settings: 100 ng/mL HRG, 10 nM Paclitaxel, 25 μg/mL 442S1, about 72 hours; FIG. 10
Procedure: About 1×10^4 ZR-75-30 cells (American Type Culture Collection) were inoculated onto a plate and incubated in RPMI 1640 medium (Invitrogen) including 10% (v/v) FBS at 37° C. under 5% CO2 conditions for about 24 hours. The medium was then exchanged with fresh medium (100 ng/mL HRG added) including 0.1% (v/v) FBS, and further incubation was performed at 37° C. under 5% CO2 conditions for about 24 hours. 10 nM of Paclitaxel (Bristol-Myers Squibb) and 25 μg/mL of antibody 442S1 were added to the cultured cells and incubated at 37° C. under 5% CO2 conditions for about 72 hours. The cultured cells were collected, and the activity of caspase 3/7 as an apoptotic marker was measured using a Caspase 3/7 Substrate Assay (Promega).

[2] = molecular target: T1, recombinant human ErbB3 protein (Homo sapiens, UniProt P21860); assay: Binding affinity of anti-ErbB3 antibody to human ErbB3 protein (Octet QK384); settings: immobilized human ErbB3; for ka (association constant): binding phase about 900 seconds; for kd (dissociation constant): dissociation phase about 1200 seconds
T1 construct: purchased R&D systems
Procedure: In particular, the binding affinities of the anti-ErbB3 antibodies to the recombinant human ErbB3 protein (R&D systems) and the antigen-antibody interactive dynamics were measured using an Octet® QK384 system (Pall Life Sciences). After activation of carboxyl groups in 20 mM of 1-ethyl-3-(3-dimethylaminopropyl)carbodiimide hydrochloride (EDC) and 40 mM of N-hydroxysulfosuccinimide (sulfo-NHS) solution on an AR2G sensor (ForteBio), 10 μg/mL of human ErbB3 protein solution diluted with 10 mM of sodium acetate (pH 4.0) (ForteBio) was added to immobilize human ErbB3 protein onto the AR2G sensor. The AR2G sensor to which the human ErbB3 protein was immobilized was treated with 1 M of ethanolamine (ForteBio) to inactivate the remaining unreacted carboxyl groups.

[3] = system: FaDu head and neck cancer, pancreatic cancer, or lung cancer; assay: Tumor growth inhibition, FaDu head and neck, pancreatic or lung cancer animal model; assay type: in vivo
Procedure: The antibody 442S1 was administered into FaDu head and neck cancer, pancreatic cancer, or lung cancer animal model, and the antibodies 442P or 472P antibodies were administered into gastric cancer animal model, in the same manner as described in Examples 3.1 to 3.3.

[4] = system: FaDu human head and neck cancer cells; assay: Cetuximab resistant FaDu xenograft model; assay type: in vivo, NOD SCID mice; settings: after Cetuximab failure; 10 mg/kg 442S1, 5 mg/kg Cetuximab, twice a week, 2 weeks; FIG. 12
Procedure: FaDu human head and neck cancer cells (Shanghai Institutes of Biological Sciences) were incubated in EMEM medium (Hyclone) including 10% FBS (Invitrogen), 0.01 mM NEAA (Non-Essential Amino Acid, Hyclone), and 2 mM L-glutamine (Invitrogen). About 5×10^6 FaDu cancer cells were suspended in 100 μl of PBS and then subcutaneously injected into the frank region of the female NOD SCID mice (HFK Bio-Technology Co., Ltd.). Weights of the mice were measured twice a week, and tumor volume was calculated using the equation of “0.5 a×b^2”, where a and b were the long and short diameters of the tumor, respectively. When the tumor volume reached about 165 mm^3 after 8 days from the inoculation of the cancer cells, the mice were randomly selected. […] Tumor volumes were measured twice a week.

## CC(=O)O[C@H]1C(=O)[C@@]2(C)[C@H]([C@H](OC(=O)c3ccccc3)[C@]3(O)C[C@H](OC(=O)[C@H](O)[C@@H](NC(=O)c4ccccc4)c4ccccc4)C(C)=C1C3(C)C)[C@]1(OC(C)=O)CO[C@@H]1C[C@@H]2O [Paclitaxel]
[1]
  activity of caspase 3/7: reduced

B1: 442S1: modified anti-ErbB3 antibody from lead antibody 442P (CDR mutagenesis) (antibody, V domains shown)
VH: EVQLLESGGGLVQPGGSLRLSCAASGFTFSDYDMSWVRQAPGKGLEWVSTIDLDSGSIYYADSVQGRFTISRDNSKNTLYLQMNSLRAEDTAVYYCAKDLHMGPEGPFDYWGQGTLVTVSS
VL: QSVLTQPPSASGTPGQRVTISCSGSSSNIGSNSVSWYQQLPGTAPKLLIYSDNHRPSGVPDRFSGSKSGTSASLAISGLRSEDEADYYCQGWDTSLSGHVFGGGTKLTVLG
modifications: Heavy chain variable region of antibody 442S1; Light chain variable region of antibody 442S1
[2]
  ka (association constant): 522000 M⁻¹ s⁻¹
  kd (dissociation constant): 3.94e-07 s⁻¹
[3]
  tumor volume relative to negative control group: tumor volume was reduced
[4]
  tumor suppression effect compared with Cetuximab alone: significant tumor suppression effect

B2: 451M6: modified anti-ErbB3 antibody from lead antibody 451P (CDR mutagenesis) (antibody, V domains shown)
VH: EVQLLESGGGLVQPGGSLRLSCAASGFTFSHYDMSWVRQAPGKGLEWVSAIYYDSGSIYYADSAKGRFTISRDNSKNTLYLQMNSLRAEDTAVYYCAKDRLFESDSTFDYWGQGTLVTVSS
VL: QSVLTQPPSASGTPGQRVTISCSGSPSNIGNNSVTWYQQLPGTAPKLLIYYDSHRPSGVPDRFSGSKSGTSASLAISGLRSEDEADYYCGSWDASLNGYVFGGGTKLTVLG
modifications: Heavy chain variable region of antibody 451M6; Light chain variable region of antibody 451M6
[2]
  ka (association constant): 1.2e+06 M⁻¹ s⁻¹
  kd (dissociation constant): 4.17e-06 s⁻¹

B3: 442S6: modified anti-ErbB3 antibody from lead antibody 442P (CDR mutagenesis) (antibody, V domains shown)
VH: EVQLLESGGGLVQPGGSLRLSCAASGFTFSDYDMSWVRQAPGKGLEWVSSIYPDSGSTDYADSVQGRFTISRDNSKNTLYLQMNSLRAEDTAVYYCAKDRHMWPEGPFDYWGQGTLVTVSS
VL: QSVLTQPPSASGTPGQRVTISCSGSSSNIGSNSGSWYQQLPGTAPKLLIYADNWRPSGVPDRFSGSKSGTSASLAISGLRSEDEADYYCAAWDSSLSGYVFGGGTKLTVLG
modifications: Heavy chain variable region of antibody 442S6; Light chain variable region of antibody 442S6
[2]
  ka (association constant): 872000 M⁻¹ s⁻¹
  kd (dissociation constant): <1e-07 s⁻¹

B4: 451M7: modified anti-ErbB3 antibody from lead antibody 451P (CDR mutagenesis) (antibody, V domains shown)
VH: EVQLLESGGGLVQPGGSLRLSCAASGFTFSYYDMSWVRQAPGKGLEWVSAIYYDSGSIYYADSAKGRFTISRDNSKNTLYLQMNSLRAEDTAVYYCAKDRLFESDSTFDYWGQGTLVTVSS
VL: QSVLTQPPSASGTPGQRVTISCSGSPSNIGNNSVTWYQQLPGTAPKLLIYYDSHRPSGVPDRFSGSKSGTSASLAISGLRSEDEADYYCGSWDASLNGYVFGGGTKLTVLG
modifications: Heavy chain variable region of antibody 451M7; Light chain variable region of antibody 451M7
[2]
  ka (association constant): 1.35e+06 M⁻¹ s⁻¹
  kd (dissociation constant): 6.63e-06 s⁻¹
